# Read-outs that look alike come from different tables or passages of the source.
# Key:
# [1] = molecular target: TSH receptor (detergent solubilised TSH receptor preparation) (UniProt P16473); assay: TSHR coated tubes after serum G23
# [2] = molecular target: TSH receptor (detergent solubilised TSH receptor preparation) (UniProt P16473); assay: TSHR coated tubes after serum G28
# [3] = molecular target: TSH receptor (detergent solubilised TSH receptor preparation) (UniProt P16473); assay: TSHR coated tubes after serum G29
# [4] = molecular target: TSH receptor (detergent solubilised TSH receptor preparation) (UniProt P16473); assay: TSHR coated tubes after serum G30
# [5] = molecular target: TSH receptor (detergent solubilised TSH receptor preparation) (UniProt P16473); assay: TSHR coated tubes after serum G32
# [6] = molecular target: TSH receptor (detergent solubilised TSH receptor preparation) (UniProt P16473); assay: TSHR coated tubes after serum G36
# [7] = molecular target: TSH receptor (detergent solubilised TSH receptor preparation) (UniProt P16473); assay: TSHR coated tubes after serum G38
# [8] = molecular target: TSH receptor (detergent solubilised TSH receptor preparation) (UniProt P16473); assay: TSHR coated tubes after serum G41
# [9] = molecular target: TSH receptor (detergent solubilised TSH receptor preparation) (UniProt P16473); assay: TSHR coated tubes after serum G43
# [10] = molecular target: TSH receptor (detergent solubilised TSH receptor preparation) (UniProt P16473); assay: TSHR coated tubes after serum G44
# [11] = molecular target: TSH receptor (detergent solubilised TSH receptor preparation) (UniProt P16473); assay: TSHR coated tubes after serum G45
# [12] = molecular target: TSH receptor (detergent solubilised TSH receptor preparation) (UniProt P16473); assay: TSHR coated tubes after serum G46
# [13] = molecular target: TSH receptor (detergent solubilised TSH receptor preparation) (UniProt P16473); assay: TSHR coated tubes after serum G47
# [14] = molecular target: TSH receptor (detergent solubilised TSH receptor preparation) (UniProt P16473); assay: TSHR coated tubes after serum G48
# [15] = molecular target: TSH receptor (detergent solubilised TSH receptor preparation) (UniProt P16473); assay: TSHR coated tubes after serum G49
# [16] = molecular target: TSH receptor (detergent solubilised TSH receptor preparation) (UniProt P16473); assay: TSHR coated tubes after serum G50
# [17] = molecular target: TSH receptor (detergent solubilised TSH receptor preparation) (UniProt P16473); assay: TSHR coated tubes after serum G51
# [18] = molecular target: TSH receptor (detergent solubilised TSH receptor preparation) (UniProt P16473); assay: TSHR coated tubes after serum G52
# [19] = molecular target: TSH receptor (detergent solubilised TSH receptor preparation) (UniProt P16473); assay: TSHR coated tubes after serum G24
# [20] = molecular target: TSH receptor (detergent solubilised TSH receptor preparation) (UniProt P16473); assay: TSHR coated tubes after serum G25
# [21] = molecular target: TSH receptor (detergent solubilised TSH receptor preparation) (UniProt P16473); assay: TSHR coated tubes after serum G26
# [22] = molecular target: TSH receptor (detergent solubilised TSH receptor preparation) (UniProt P16473); assay: TSHR coated tubes after serum G27
# [23] = molecular target: TSH receptor (detergent solubilised TSH receptor preparation) (UniProt P16473); assay: TSHR coated tubes after serum G31
# [24] = molecular target: TSH receptor (detergent solubilised TSH receptor preparation) (UniProt P16473); assay: TSHR coated tubes after serum G33
# [25] = molecular target: TSH receptor (detergent solubilised TSH receptor preparation) (UniProt P16473); assay: TSHR coated tubes after serum G34
# [26] = molecular target: TSH receptor (detergent solubilised TSH receptor preparation) (UniProt P16473); assay: TSHR coated tubes after serum G35
# [27] = molecular target: TSH receptor (detergent solubilised TSH receptor preparation) (UniProt P16473); assay: TSHR coated tubes after serum G37
# [28] = molecular target: TSH receptor (detergent solubilised TSH receptor preparation) (UniProt P16473); assay: TSHR coated tubes after serum G39
# [29] = molecular target: TSH receptor (detergent solubilised TSH receptor preparation) (UniProt P16473); assay: TSHR coated tubes after serum G40
# [30] = molecular target: TSH receptor (detergent solubilised TSH receptor preparation) (UniProt P16473); assay: TSHR coated tubes after serum NSF 4
# [31] = molecular target: TSH receptor (detergent solubilised TSH receptor preparation) (UniProt P16473); assay: TSHR coated tubes after serum NSF 5
# [32] = molecular target: TSH receptor (detergent solubilised TSH receptor preparation) (UniProt P16473); assay: TSHR coated tubes after serum NSF 10
# [33] = molecular target: TSH receptor (detergent solubilised TSH receptor preparation) (UniProt P16473); assay: TSHR coated tubes after serum NSF 16
# [34] = molecular target: TSH receptor (detergent solubilised TSH receptor preparation) (UniProt P16473); assay: TSHR coated tubes after serum NSF 17
# [35] = molecular target: TSH receptor (detergent solubilised TSH receptor preparation) (UniProt P16473); assay: TSHR coated tubes after serum NSF 18
# [36] = molecular target: TSH receptor (detergent solubilised TSH receptor preparation) (UniProt P16473); assay: TSHR coated tubes after serum NSF 20
# [37] = molecular target: TSH receptor (detergent solubilised TSH receptor preparation) (UniProt P16473); assay: TSHR coated tubes after serum NSF 21
# [38] = molecular target: TSH receptor (detergent solubilised TSH receptor preparation) (UniProt P16473); assay: TSHR coated tubes after serum NSF 22
# [39] = molecular target: TSH receptor (detergent solubilised TSH receptor preparation) (UniProt P16473); assay: TSHR coated tubes after serum NSF 26
# [40] = molecular target: TSH receptor (detergent solubilised TSH receptor preparation) (UniProt P16473); assay: TSHR coated tubes, healthy blood donor sera
# [41] = molecular target: TSH receptor (detergent solubilised TSH receptor preparation) (UniProt P16473); assay: TSHR coated tubes, healthy blood donor sera; remark: listed apart in the source
# [42] = molecular target: TSH receptor (detergent solubilised TSH receptor preparation) (UniProt P16473); assay: 125I-TSHR immunoprecipitation; competitor TRAb of serum K3
# Sequence of TSH (thyrotrophin, thyroid stimulating hormone) (ligand) (P01223 21-132): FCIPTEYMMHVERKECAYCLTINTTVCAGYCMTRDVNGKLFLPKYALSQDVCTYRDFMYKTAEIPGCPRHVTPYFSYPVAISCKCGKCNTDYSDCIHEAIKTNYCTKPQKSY
# Sequence of TSH receptor (detergent solubilised TSH receptor preparation) (P16473 21-764 limits assumed): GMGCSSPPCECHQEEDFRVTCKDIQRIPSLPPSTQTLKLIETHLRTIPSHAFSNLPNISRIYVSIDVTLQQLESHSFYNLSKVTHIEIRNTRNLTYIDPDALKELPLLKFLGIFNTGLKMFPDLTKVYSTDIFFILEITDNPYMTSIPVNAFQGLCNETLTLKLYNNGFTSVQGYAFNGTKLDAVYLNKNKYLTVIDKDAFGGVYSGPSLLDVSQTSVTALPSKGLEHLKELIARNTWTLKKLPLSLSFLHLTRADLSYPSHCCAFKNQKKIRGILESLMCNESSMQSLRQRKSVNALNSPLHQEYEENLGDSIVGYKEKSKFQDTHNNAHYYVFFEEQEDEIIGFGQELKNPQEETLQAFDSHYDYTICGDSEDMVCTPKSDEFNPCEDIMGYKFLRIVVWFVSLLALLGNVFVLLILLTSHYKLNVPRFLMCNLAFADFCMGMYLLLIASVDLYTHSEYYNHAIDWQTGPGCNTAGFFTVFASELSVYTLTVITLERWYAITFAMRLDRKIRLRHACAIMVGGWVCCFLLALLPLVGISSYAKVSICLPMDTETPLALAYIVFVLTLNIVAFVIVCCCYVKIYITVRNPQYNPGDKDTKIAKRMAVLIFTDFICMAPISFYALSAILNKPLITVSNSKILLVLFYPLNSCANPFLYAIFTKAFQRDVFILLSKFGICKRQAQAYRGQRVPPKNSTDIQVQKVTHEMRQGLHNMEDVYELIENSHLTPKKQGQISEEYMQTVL
substance,measurement,setting,value
"TSH (thyrotrophin, thyroid stimulating hormone) (ligand)",% total counts bound (% total counts added),[1],8.9
same,% total counts bound (% total counts added),[2],3.8
same,% total counts bound (% total counts added),[3],8
same,% total counts bound (% total counts added),[4],5.3
same,% total counts bound (% total counts added),[5],7.5
same,% total counts bound (% total counts added),[6],10.1
same,% total counts bound (% total counts added),[7],10
same,% total counts bound (% total counts added),[8],10.8
same,% total counts bound (% total counts added),[9],4
same,% total counts bound (% total counts added),[10],12.4
same,% total counts bound (% total counts added),[11],3.5
same,% total counts bound (% total counts added),[12],2.7
same,% total counts bound (% total counts added),[13],4.3
same,% total counts bound (% total counts added),[14],4.8
same,% total counts bound (% total counts added),[15],6.1
same,% total counts bound (% total counts added),[16],6.3
same,% total counts bound (% total counts added),[17],7.9
same,% total counts bound (% total counts added),[18],7.4
same,% total counts bound (% total counts added),[19],6.9
same,% total counts bound (% total counts added),[20],7.2
same,% total counts bound (% total counts added),[21],2.6
same,% total counts bound (% total counts added),[22],7.3
same,% total counts bound (% total counts added),[23],4.3
same,% total counts bound (% total counts added),[24],6.1
same,% total counts bound (% total counts added),[25],7.5
same,% total counts bound (% total counts added),[26],4.3
same,% total counts bound (% total counts added),[27],9.3
same,% total counts bound (% total counts added),[28],7.9
same,% total counts bound (% total counts added),[29],7.2
same,% total counts bound (% total counts added),[30],12.5
same,% total counts bound (% total counts added),[31],12.3
same,% total counts bound (% total counts added),[32],12.5
same,% total counts bound (% total counts added),[33],12
same,% total counts bound (% total counts added),[34],11.5
same,% total counts bound (% total counts added),[35],11.2
same,% total counts bound (% total counts added),[36],12.3
same,% total counts bound (% total counts added),[37],12.3
same,% total counts bound (% total counts added),[38],12.4
same,% total counts bound (% total counts added),[39],12.8
same,mean % total counts bound,[40],12.2%
same,mean % total counts bound,[41],12.1%
same,% inhibition of TRAb binding,[42],55.4%
